Measurements from paper PMC3747146 (PLoS ONE, 2013).
Positions count from the first letter of the chain named. Numbers in names are those of the source.

B1: MALT1(Casp-like), wildtype isolated protease domain (aa 333-566) (domain or fragment, UniProt Q9UDY8 333-566, looked up)
chain: QTTDQPLAKDKVALLIGNMNYREHPKLKAPLVDVYELTNLLRQLDFKVVSLLDLTEYEMRNAVDEFLLLLDKGVYGLLYYAGHGYENFGNSFMVPVDAPNPYRSENCLCVQNILKLMQEKETGLNVFLLDMCRKRNDYDDTIPILDALKVTANIVFGYATCQGAEAFEIQHSGLANGIFMKFLKDRLLEDKKITVLLDEVAEDMGKCHLTKGKQALEIRSSLSEKRALTDPIQG
notes: MALT1 (paracaspase), isolated protease (caspase-like) domain, aa 333-566; also called Casp-like construct; MALT1 caspase-like domain; source: E. coli BL21, GST fusion purified on glutathione-Sepharose, released with PreScission enzyme
B2: MALT1(ΔNT), wildtype protease domain and C-terminal extension (aa 333-824) (domain or fragment, UniProt Q9UDY8 333-824, looked up)
chain: QTTDQPLAKDKVALLIGNMNYREHPKLKAPLVDVYELTNLLRQLDFKVVSLLDLTEYEMRNAVDEFLLLLDKGVYGLLYYAGHGYENFGNSFMVPVDAPNPYRSENCLCVQNILKLMQEKETGLNVFLLDMCRKRNDYDDTIPILDALKVTANIVFGYATCQGAEAFEIQHSGLANGIFMKFLKDRLLEDKKITVLLDEVAEDMGKCHLTKGKQALEIRSSLSEKRALTDPIQGTEYSAESLVRNLQWAKAHELPESMCLKFDCGVQIQLGFAAEFSNVMIIYTSIVYKPPEIIMCDAYVTDFPLDLDIDPKDANKGTPEETGSYLVSKDLPKHCLYTRLSSLQKLKEHLVFTVCLSYQYSGLEDTVEDKQEVNVGKPLIAKLDMHRGLGRKTCFQTCLMSNGPYQSSAATSGGAGHYHSLQDPFHGVYHSHPGNPSNVTPADSCHCSRTPDAFISSFAHHASCHFSRSNVPVETTDEIPFSFSDRLRISEK
notes: MALT1 (paracaspase), protease domain and C-terminal extension, aa 333-824; also called ΔNT construct; source: E. coli BL21, GST fusion purified on glutathione-Sepharose, released with PreScission enzyme
B3: MALT1(ΔNT) E549A, protease domain and C-terminal extension (aa 333-824) (domain or fragment, UniProt Q9UDY8 333-824, looked up)
chain: B2 chain with E217A
notes: MALT1 (paracaspase), protease domain and C-terminal extension, aa 333-824, with E549A; source: E. coli BL21, GST fusion purified on glutathione-Sepharose, released with PreScission enzyme

Target: the molecule itself
Experiment: SEC; Superdex 200 on an ÄKTA FPLC at 4°C, PBS with 10% glycerol (pH 7.4), flow 0.35 ml/min; recombinant proteins released from GST with PreScission

Protein | stoichiometry N | binding result
B1 | 2 | –
B2 | – | binds
B3 | – | binds
